Measurements published in PMC7229167, “Atypical chemokine receptor ACKR2-V41A has decreased CCL2 binding, scavenging, and activation, supporting sustained inflammation and increased Alzheimer’s disease risk” (Scientific Reports, 2020).
Substitutions are numbered along the chain they refer to.

Key:
[1] = molecular target: T1, Atypical chemokine receptor 2 variant V41A (ACKR2-V41A; rs2228467) (human, UniProt O00590 1-384, V41A); experiment: flow cytometry on cells; competition: transfected CHO-k1 cells incubated with unconjugated chemokine at 37 °C for 45 minutes, then stained with anti-human ACKR2 polyclonal IgG and PE secondary; blockage = 100 minus percent of ACKR2-positive cells; titration with non-linear analysis for Kd; conditions: one partner purified
T1 construct: Atypical chemokine receptor 2 (ACKR2), human, natural variant V41A (rs2228467), expressed on the surface of CHO-k1 cells; also called ACRK2-V41A; source: CHO-k1 cells, transfected (lipofectamine), G418 selected, enriched with anti-PE MicroBeads; on cells
T1 sequence (looked up): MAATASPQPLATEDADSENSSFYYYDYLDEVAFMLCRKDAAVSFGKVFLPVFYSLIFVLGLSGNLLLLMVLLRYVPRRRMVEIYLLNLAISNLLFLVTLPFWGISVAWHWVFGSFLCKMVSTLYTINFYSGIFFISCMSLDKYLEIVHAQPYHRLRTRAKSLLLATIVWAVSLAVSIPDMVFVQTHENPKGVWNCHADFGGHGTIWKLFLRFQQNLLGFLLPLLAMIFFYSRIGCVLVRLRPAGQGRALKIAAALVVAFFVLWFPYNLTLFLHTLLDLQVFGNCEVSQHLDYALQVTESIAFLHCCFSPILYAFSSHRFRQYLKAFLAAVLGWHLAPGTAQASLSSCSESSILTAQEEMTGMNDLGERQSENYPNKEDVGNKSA

[2] = molecular target: T2, Atypical chemokine receptor 2, wild type (ACKR2-WT) (human, UniProt O00590 1-384); experiment: as above; conditions: one partner purified
T2 construct: Atypical chemokine receptor 2 (ACKR2), human, wild type allele, expressed on the surface of CHO-k1 cells; also called CCBP-WT; source: CHO-k1 cells, transfected (lipofectamine), G418 selected, enriched with anti-PE MicroBeads; on cells
T2 sequence (looked up): T1 sequence (looked up) with A41V

Kd [1]: 2.03 µM
Kd [2]: 0.6 µM
B1: Chemokine ligand 4 (CCL4), unconjugated (ligand, UniProt P13236 24-92, looked up)
chain: APMGSDPPTACCFSYTARKLPRNFVVDYYETSSLCSQPAVVFQTKRSKQVCADPSESWVQEYVYDLELN
notes: Chemokine ligand 4 (CCL4), unconjugated; also called unconjugated CCL4; source: bought: PEPROTECH, Cat #300-.9
